Measurements published in US20150284436A1 (published 2015).
Numbering of substitutions follows the chain as printed. Names may count otherwise.

T1: TRX, wild-type, with C-terminal hexahistidine-tag (NMR sample) (human, UniProt P10599 1-105)
T1 construct: also called unlabeled, reduced TRX; wild-type TRX; not shown: C-terminal hexahistidine-tag from pET21 vector
T1 sequence: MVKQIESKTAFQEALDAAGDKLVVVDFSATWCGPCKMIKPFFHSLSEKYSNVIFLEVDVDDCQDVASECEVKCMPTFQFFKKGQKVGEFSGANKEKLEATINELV

T2: TRX(C35A), tag-free (human, UniProt P10599 1-105)
T2 construct: Human TRX with alanine for cysteine at position 35; Co-expressed tag-free with T-TXNIP mutants or N-TXNIP; also called modified TRX protein
T2 chain: T1 sequence with C35A

T3: HA-tagged TXNIP (human, UniProt Q9H3M7 1-391)
T3 construct: Expressed in HEK 293T cells
T3 sequence: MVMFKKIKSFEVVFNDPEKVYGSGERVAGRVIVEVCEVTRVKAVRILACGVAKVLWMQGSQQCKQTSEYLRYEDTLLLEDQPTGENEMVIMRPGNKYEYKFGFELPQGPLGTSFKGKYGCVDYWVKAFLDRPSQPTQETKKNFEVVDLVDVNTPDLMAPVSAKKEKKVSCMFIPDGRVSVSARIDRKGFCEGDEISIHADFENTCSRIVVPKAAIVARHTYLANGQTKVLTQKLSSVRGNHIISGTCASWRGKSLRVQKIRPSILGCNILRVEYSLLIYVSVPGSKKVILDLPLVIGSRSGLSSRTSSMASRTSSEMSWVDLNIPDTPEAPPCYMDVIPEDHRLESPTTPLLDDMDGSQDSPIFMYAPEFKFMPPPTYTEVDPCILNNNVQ

T4: T-TXNIP (TXNIP residues 3-317) (human, UniProt Q9H3M7 3-317)
T4 construct: In E. coli it was expressed with an N-terminal hexahistidine-tag that was removed by rTEV protease; also called native T-TXNIP; T-TXNIP(3-317)
T4 sequence: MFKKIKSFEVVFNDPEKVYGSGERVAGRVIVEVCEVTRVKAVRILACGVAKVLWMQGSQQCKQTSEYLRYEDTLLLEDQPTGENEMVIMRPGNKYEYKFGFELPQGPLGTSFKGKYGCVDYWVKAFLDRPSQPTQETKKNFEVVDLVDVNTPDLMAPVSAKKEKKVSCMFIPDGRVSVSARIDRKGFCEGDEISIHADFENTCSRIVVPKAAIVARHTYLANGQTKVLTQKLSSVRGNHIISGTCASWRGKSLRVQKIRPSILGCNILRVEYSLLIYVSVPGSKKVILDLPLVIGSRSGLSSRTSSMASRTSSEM

B1: N-TXNIP (N-terminal domain of TXNIP, residues 3-156) (other)
chain: MFKKIKSFEVVFNDPEKVYGSGERVAGRVIVEVCEVTRVKAVRILACGVAKVLWMQGSQQCKQTSEYLRYEDTLLLEDQPTGENEMVIMRPGNKYEYKFGFELPQGPLGTSFKGKYGCVDYWVKAFLDRPSQPTQETKKNFEVVDLVDVNTPDL
notes: The NMR sample was 15N-labeled and its hexahistidine-tag was removed by rTEV; In the Ni-NTA co-purification it carried the N-terminal hexahistidine-tag; also called N-terminal TXNIP; ^15N-labeled N-TXNIP
B2: TRX C62A mutant (NMR sample) (enzyme)
chain: T1 sequence with C62A
notes: not shown: C-terminal hexahistidine-tag from pET21 vector
B3: N-TXNIP C63S mutant (^15N-labeled) (other)
chain: B1 chain with C61S
B4: TRX C69A mutant (NMR sample) (enzyme)
chain: T1 sequence with C69A
notes: as for B2
B5: N-TXNIP C120S mutant (^15N-labeled) (other)
chain: B1 chain with C118S
B6: TRX C73A mutant (NMR sample) (enzyme)
chain: T1 sequence with C73A
notes: as for B2
B7: T-TXNIP(C170S/C205S/C267S) (other)
chain: T4 sequence with C168S, C203S, C265S
notes: 1; The N-terminal hexahistidine-tag was removed by rTEV protease; also called modified TXNIP protein of COM2
B8: FLAG-tagged T-TXNIP (other)
chain: T4 sequence
notes: Expressed in HEK 293T cells
B9: T-TXNIP(C120S/C170S/C205S/C267S) (other)
chain: T4 sequence with C118S, C168S, C203S, C265S
notes: 1; The N-terminal hexahistidine-tag was removed by rTEV protease; also called T-TXNIP(C120,170,205,267S); modified TXNIP protein of COM1
B10: human TRX (thioredoxin), wild-type, tag-free (enzyme)
chain: T1 sequence
notes: Expressed tag-free under the T7 promoter together with TXNIP constructs in E. coli; also called native TRX; endogenous TRX

What was measured:
[1] = molecular target: T1, TRX, wild-type, with C-terminal …; assay: 1H-15N HSQC NMR titration of 15N-labeled N-TXNIP
Experimental: (§1) NMR interaction experiments were carried out by recording ¹H-¹⁵N NMR HSQC spectra of ¹⁵N-labeled N-TXNIP upon addition of unlabeled TRX or its mutant, which was reduced with 5 mM DTT and dialyzed against 50 mM potassium phosphate (pH 6.6) prior to the interaction study to remove excess DTT.
(§2) The ¹H-¹⁵N HSQC spectra of all proteins were measured on a Bruker 900 MHz NMR spectrometer at the Korea Basic Science Institute (Ochang, Korea). The NMR measurements were performed using 0.3 mM ¹⁵N-labeled protein in 50 mM potassium phosphate (pH 6.6) containing 10% D₂O at 25° C. All NMR spectra were processed with Topspin 2.1 and analyzed with the program SPARKY 3.1.
To evaluate the involvement of N-TXNIP in the interaction of TXNIP with TRX, an NMR-titration experiment was performed by recording a series of ¹H-¹⁵N heteronuclear single quantum coherence (HSQC) spectra of ¹⁵N-labeled N-TXNIP after addition of unlabeled, reduced TRX.

[2] = molecular target: B1; assay: 1H-15N HSQC NMR of 15N-labeled N-TXNIP
Experimental: as §1, §2
(§3) Further, TRX muteins were added and ¹H-¹⁵N HSQC spectra of ¹⁵N-labeled N-TXNIP were monitored to examine interaction between N-TXNIP and TRX. […] In contrast, C62A, C69A, and C73A mutants caused a chemical shift similar to the wild-type TRX (FIG. 12).

[3] = molecular target: T1, TRX, wild-type, with C-terminal …; assay: 1H-15N HSQC NMR
Experimental: as §1, §2, §3

TRX(C35A), tag-free [4] = molecular target: T2, TRX(C35A), tag-free; assay: co-crystal structure, X-ray, 2.7 Å
HA-tagged TXNIP = molecular target: T3, HA-tagged TXNIP; assay: anti-FLAG agarose immunoprecipitation from HEK 293T lysates (50 mM iodoacetamide), Western blot
Experimental: To test the in vivo interprotomer interaction between TXNIP molecules, HEK 293T cells were transfected with plasmids expressing HA-tagged-TXNIP and FLAG-tagged T-TXNIP. 24 hours later, the cells were harvested and lysed in the 50 mM iodoacetamide-containing buffer [0.5% Triton X-100, 150 mM NaCl, 10% glycerol, 1 mM NaF, 1 mM AEBSF, 2 μg/mL leupeptin, 5 μg/mL aprotinin and 20 mM HEPES (pH 7.2)]. After centrifugation at 16,000 rpm for 20 minutes, the supernatant was incubated with anti-FLAG M2 agarose (Sigma) at 4° C. for 12 hours. The immobilized proteins were collected by centrifugation and washed three times with the lysis buffer. The bound proteins were subjected to SDS-PAGE under reduced and non-reduced conditions. […] 24 hours later, the cells were harvested and lysed in the lysis buffer. After centrifugation at 16,000 g for 20 minutes, the supernatants were incubated at 4° C. for 12 hours with monoclonal anti-FLAG M2 agarose beads (Sigma) for immunoprecipitation, or with glutathione-conjugated sepharose beads (GE Healthcare) for pull-down assay. The immobilized proteins were collected by centrifugation and washed three times with lysis buffer. Bound proteins or WCLs were eluted by boiling in SDS sample buffer. […]

TRX(C35A), tag-free [5] = molecular target: T2, TRX(C35A), tag-free; assay: size-exclusion chromatography
Experimental: A Superdex™ 200 10/300 GL gel filtration column (GE Healthcare) installed on an Acta purifier FPLC system (GE Healthcare) was equilibrated with 50 mM Tris-HCl (pH 8.0), 500 mM NaCl, and 10% glycerol at a flow rate of 0.4 ml/min at room temperature. Purified TRX-T-TXNIP and its mutants were injected onto the column. Ovalbumin was used as a molecular weight standard.
The structures of COM1 and COM2 are essentially identical, each contains two heterodimeric complexes of TRX and T-TXNIP in an asymmetric unit, with a large interface between the two T-TXNIP molecules (FIGS. 5A and B). […] Thus, the interfaces between the T-TXNIP molecules in the crystal structures merely constitute large crystal contacts.

[6] = molecular target: B10; assay: GST pull-down from transfected HEK 293T lysates, immunoblot
[7] = molecular target: T4, T-TXNIP (TXNIP residues 3-317); assay: as above

Binder: B1
binding result [1]: binds

Binder: B2
binding result [2]: binds

Binder: B3
binding result [3]: no binding

Binder: B4
binding result [2]: binds

Binder: B5
binding result [3]: no binding

Binder: B6
binding result [2]: binds

Binder: B7
binding result (TRX(C35A), tag-free [4]): binds

Binder: B8
binding result (HA-tagged TXNIP): binds

Binder: B9
binding result (TRX(C35A), tag-free [5]): binds
binding result [6]: binds

Binder: B10
binding result [7]: binds
